The supplement of paper PMC9112550, “Optimization of the antimicrobial peptide Bac7 by deep mutational scanning” (BMC Biology, 2022)

Tested on: Escherichia coli TOP10
Experiment: shrunken log2 fold change of peptide-encoding DNA abundance (4.5 h post-induction vs induction); higher = less antimicrobial activity (less host growth inhibition)
Conditions: time post-induction: 4.5 h; library: site-saturation at positions 5, 18, 19, 20
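Note: peptides expressed intracellularly from a pBAD plasmid library in pooled LB shake-flask culture, induced with 0.3% L-arabinose, DNA abundance read by NGS, three biological replicates, DESeq2 with apeglm shrinkage.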

RRIRNRPPRLPRPRPRPSQIPRP
shrunken log2 fold change: -0.664

RRIRYRPPRLPRPRPRPDDSPRP
shrunken log2 fold change: 0.00262

RRIRCRPPRLPRPRPRPIYAPRP
shrunken log2 fold change: -0.281

RRIRDRPPRLPRPRPRPQYYPRP
shrunken log2 fold change: 0.003

RRIRGRPPRLPRPRPRPACNPRP
shrunken log2 fold change: 0.415

RRIRSRPPRLPRPRPRPPCRPRP
shrunken log2 fold change: 0.426

RRIRDRPPRLPRPRPRPFIAPRP
shrunken log2 fold change: -0.237

RRIRTRPPRLPRPRPRPSRVPRP
shrunken log2 fold change: 0.526

RRIRPRPPRLPRPRPRPYNNPRP
shrunken log2 fold change: -1.25

RRIRCRPPRLPRPRPRPNEKPRP
shrunken log2 fold change: -0.00225

RRIRRRPPRLPRPRPRPFVVPRP
shrunken log2 fold change: 0.0981

RRIRQRPPRLPRPRPRPWSFPRP
shrunken log2 fold change: -0.026

RRIRLRPPRLPRPRPRPKSKPRP
shrunken log2 fold change: -0.071

RRIRGRPPRLPRPRPRPLPCPRP
shrunken log2 fold change: 0.51

RRIRIRPPRLPRPRPRPWAAPRP
shrunken log2 fold change: 0.00251

RRIRWRPPRLPRPRPRPSQSPRP
shrunken log2 fold change: -0.0797

RRIRERPPRLPRPRPRPKFYPRP
shrunken log2 fold change: -0.519

RRIRNRPPRLPRPRPRPQIPPRP
shrunken log2 fold change: 0.0549

RRIRARPPRLPRPRPRPNHVPRP
shrunken log2 fold change: -0.31

RRIRARPPRLPRPRPRPVGFPRP
shrunken log2 fold change: 0.516

RRIRTRPPRLPRPRPRPRHDPRP
shrunken log2 fold change: 0.0144

RRIRTRPPRLPRPRPRPIHSPRP
shrunken log2 fold change: -0.191

RRIRNRPPRLPRPRPRPGQVPRP
shrunken log2 fold change: 0.0381

RRIRMRPPRLPRPRPRPASNPRP
shrunken log2 fold change: 0.421

RRIRVRPPRLPRPRPRPACYPRP
shrunken log2 fold change: -0.0764

RRIRMRPPRLPRPRPRPRWMPRP
shrunken log2 fold change: 0.315

RRIRHRPPRLPRPRPRPAPIPRP
shrunken log2 fold change: 0.31

RRIRPRPPRLPRPRPRPFGSPRP
shrunken log2 fold change: 0.0959

RRIRVRPPRLPRPRPRPRTGPRP
shrunken log2 fold change: -0.0024

RRIRMRPPRLPRPRPRPKCRPRP
shrunken log2 fold change: 0.0493

RRIRMRPPRLPRPRPRPHSRPRP
shrunken log2 fold change: 0.211

RRIRNRPPRLPRPRPRPPQMPRP
shrunken log2 fold change: 0.234

RRIRGRPPRLPRPRPRPFHSPRP
shrunken log2 fold change: -0.155

RRIRIRPPRLPRPRPRPWVEPRP
shrunken log2 fold change: -0.211

RRIRFRPPRLPRPRPRPFDRPRP
shrunken log2 fold change: 0.0332

RRIRLRPPRLPRPRPRPTYGPRP
shrunken log2 fold change: -0.0237

RRIRVRPPRLPRPRPRPTGRPRP
shrunken log2 fold change: 0.274

RRIRERPPRLPRPRPRPIGEPRP
shrunken log2 fold change: 0.128

RRIRFRPPRLPRPRPRPPDTPRP
shrunken log2 fold change: 0.254

RRIRDRPPRLPRPRPRPLKIPRP
shrunken log2 fold change: -0.297

RRIRHRPPRLPRPRPRPKSNPRP
shrunken log2 fold change: -0.216

RRIRNRPPRLPRPRPRPKGAPRP
shrunken log2 fold change: 0.476

RRIRIRPPRLPRPRPRPHWSPRP
shrunken log2 fold change: -0.187

RRIRRRPPRLPRPRPRPNLTPRP
shrunken log2 fold change: -0.245

RRIRWRPPRLPRPRPRPFPEPRP
shrunken log2 fold change: -0.145

RRIRERPPRLPRPRPRPTQVPRP
shrunken log2 fold change: -0.0607

RRIRSRPPRLPRPRPRPNAEPRP
shrunken log2 fold change: 0.572

RRIRFRPPRLPRPRPRPIWIPRP
shrunken log2 fold change: -0.234

RRIRLRPPRLPRPRPRPFKFPRP
shrunken log2 fold change: -0.202

RRIRNRPPRLPRPRPRPAYDPRP
shrunken log2 fold change: -0.119

RRIRFRPPRLPRPRPRPKHLPRP
shrunken log2 fold change: -0.0736

RRIRIRPPRLPRPRPRPQTQPRP
shrunken log2 fold change: -0.244

RRIRRRPPRLPRPRPRPYWCPRP
shrunken log2 fold change: -0.0451

RRIRPRPPRLPRPRPRPYNLPRP
shrunken log2 fold change: -0.708

RRIRFRPPRLPRPRPRPTFQPRP
shrunken log2 fold change: -0.156

RRIRYRPPRLPRPRPRPNSNPRP
shrunken log2 fold change: -1.47

RRIRCRPPRLPRPRPRPNQEPRP
shrunken log2 fold change: -0.0562

RRIRMRPPRLPRPRPRPMNCPRP
shrunken log2 fold change: -0.00776

RRIRGRPPRLPRPRPRPSISPRP
shrunken log2 fold change: 0.0894

RRIRYRPPRLPRPRPRPYLFPRP
shrunken log2 fold change: -0.687
